Test: soluble on expression in E. coli; label from the status in PepcDB or PDB records

Sequence | soluble on expression in E. coli
MWYHRLSHLHSRLQDLLKGGVIYPALPQPNFKSLLPLAVHWHHTASKSLTCAWQQHEDHFELKYANTVMRFDYVWLRDHCRSASCYNSKTHQRSLDTASVDLCIKPKTIRLDETTLFFTWPDGHVTKYDLNWLVKNSYEGQKQKVIQPRILWNAEIYQQAQVPSVDCQSFLETNEGLKKFLQNFLLYGIAFVENVPPTQEHTEKLAERISLIRETIYGRMWYFTSDFSRGDTAYTKLALDRHTDTTYFQEPCGIQVFHCLKHEGTGGRTLLVDGFYAAEQVLQKAPEEFELLSKVPLKHEYIEDVGECHNHMIGIGPVLNIYPWNKELYLIRYNNYDRAVINTVPYDVVHRWYTAHRTLTIELRRPENEFWVKLKPGRVLFIDNWRVLHGRECFTGYRQLCGCYLTRDDVLNTARLLGLQA | not soluble
MGSDKIHHHHHHMMKMQVVIASGKGGVGKSSITASLLYLLKDEYKLIAVDADAEAPNLGLLLGVTEWEIEREHIGAKIARINPESCIRCGLCQMRCPYECIYVDEEGNYVVNELTCEGCNVCGLVCPVPGTITLEEVRSGIIRKATTKYGFPIISAQLDVGKPESGKLVTEEKEWASKIMKEEGLEHMIVDSAAGIGCQVIASVGGADVAILIAEPTPASLSDVQRVYKVVQHFREPAYLIINKADINPGFTKLREWAESEGIPILGEVPYDSSIPRSMSMLKPFVEAFPDSKASEAIRGIAERIKEEILKG | not soluble
MGSDKIHHHHHHMNWLNLRAIVPSDKQNMPNKKNKAAFARTVTKNGAPDVSDIKNSYDDLMYESGAFSQTAINNLEARARLMGLQPAPAANAKVLELGCSMGGNIITQALYYPDAEFTGIDLSGRQVAQGNAIIEKMGLKNVRLEEKDILTVDESFGKFDYIIVHGIWSWVPDAVKDKIFSICRNNLTEHGIAYISYNVYPGWKRQEQLREIMQFSGRDVLEEPLEARTRKGLDALKALAEILENDKGLGGGGKLPAIQKILNHNFYYIAHEYMEAFNDPIYVNGFIEWANRHRLAYIGDTDLHVSFVSWMAEHTRERILALAGGDYIAKEFYSDILSDRQFRRSLLCREEVGDTVRRDESVAVEVIESLNFRPARGETINFDENDTLLSGIRDVMKTGEPFKTEDVAENLARRFPGLTFDRMKINSQLLLQTILGRFSVSSDNAGKPFFEDHKTYVPARFTDYVAAFVEHGAEAFVRPANRYNESTPSFGYGHLYIMRQLSRPTSKQAVIDAVAENLNIVSTTPDGLTFHPPAEVYVEEILADLADRHFLVSAD | not soluble
MSLAQNSSIDYPSYQKRNTDALEISRIVRNDTATILYMDAYSRPNYWIRLASELSLHGVQSGKKYPVIRSQGFELDKQVYMPASGNVTFTLQFAPIDPQDRTIDFVESNNEEDFRIEGICLDASVPKKKVHCHLAGKMANRPQTSRLILIESNKNTRGTPWISIPVRNGVFEYDFYTDHEKAYELICWDDLLNGCWYPVTFFAENGTVSFTISAIDARPPYRIETLNSLTTALRLFEAEGKDKFSFDELNARRDTLEKYGRFESEAMQALWKKFDQVKDNPEERNKLFRERDRLEESGEAFTKEAKALIKEREQLFRKKVIWETEQASQHPSLVGLFILKMKVENARKDEDVTPYLEAFQKVYASRYPEHPYTREMQMFIDNNQPKTGNRFIDFSAPDLNGNMVQLSEQIRGKVALIDLWASWCGPCRTTSKQLIPIYEKYKDRGFTVIGVAREQNSDIRMREAIRKDGYPWLNLIELNDVQQIWSKYRIPNAAGGTFLVNAQGIILAVNPTAEEVERILQKELEGHHHHHH | soluble
GTKASKSGVPVTQTQTAGADTTAEKCKGKGEKDCKSPDCKWEGGTCKD | soluble
MAHHHHHHMPQRSHVPLASPSPLNAPPPLTSRPGPVNYCGAHAEPAAGLNYTHHDDHRSVFRDQASCDPSPSQRALHQQQVHRPRAVSPGPHDGSAPHVSALVARGAVIRADELETILDEQNYIWQMEEYRFRTERQKRLTALQHRQHELMLESARYDQAVAEVERQLARERQRLEELRQMMARNATTSCSPIDREHGLQDPPTAMSDAPHVIARNSSAMHHGQARDHAYSAPHDAPYFPTGASDGLSAMNEEEVIAEV | not soluble
LCPDPDDDEGLIVSDSDGMIVDVTEPLPRVTGYSKSELLGMETAALFWLRDGDNHSGHTRAPVSETEGRSHGLLECADGSRITVEQRSYTVRPEAETHVCTTVLFPGDGE | not soluble
MEKPIIRGYIRENGSVGVRNYVAVIPVDDLSNSASIGVSKLIRGTVAIPHPYGRLQFGKDLDLLFHVLSGTGANPNVAAAIVIGIEENWANKVADKIAETGKPVEVFPVEGNGDLKVIEKASRKAKEFVQEASEKQRTEVDLSSLVLSIKCGESDTTSGLASNPATGYAVDKLIDYGSTVMFGETSELTGAEDIVASRIQDPVLRDKFMRIYNEYVAFIESQGVDLLGSQPTEGNIKGGLSTIEEKALGNIQKLGTKPITCVLDYLDPLGKGSSRLCFVNTSSAAAEAVTLFAAKGSVLHLFTTGQGNVVGHPIIPVVKISANPKTIATMSEHIDVDVSDLLQLKVSLKEAGERIFNYTIRVANGRLTSAEILQHEEFSPIKLYISA | not soluble
MIDFGNFYSLIAKNHLSHWLETLPAQIANWQREQQHGLFKQWSNAVEFLPEIKPYRLDLLHSVTAESEEPLSAGQIKRIETLMRNLMPWRKGPFSLYGVNIDTEWRSDWKWDRVMPHLSDLTGRTILDVGCGSGYHMWRMIGAGAHLAVGIDPTQLFLCQFEAVRKLLGNDQRAHLLPLGIEQLPALKAFDTVFSMGVLYHRRSPLEHLWQLKDQLVNEGELVLETLVIDGDENTVLVPGDRYAQMRNVYFIPSALALKNWLKKCGFVDIRIADVSVTTTEEQRRTEWMVTESLADFLDPHDPGKTVEGYPAPKRAVLIARKP | not soluble
ALIIVSGSEGRIEKAQNIAQLLSSRGYICLAIAYFGLEGLPKHLKRIPLECLVEAKSYLRQYPQVDSERIGIYGRSKGAELVLAEESIFNDVQCLVLNSPSDVVDEGIIGKWNSHTSSWTHLQKELPYQKFRFRDYLFSKLFRKDFPKDCSARIDIGQMHSPILLLESTVDEIWDASSAIDDIVSHYKGHYITFKKYHETGHMLTVAYQPNHRYRKDWHLLMKESEDSWLATIHFFDRHLK | not soluble
MGSDKIHHHHHHMRKIKLIIFPGYYIPHIGGLETHVDEFTKHLSEDENYDIYIFAPNIPKYKEFEIRHNNVKVYRYPAFEIIPNYPVPNIFNIKFWRMFFNLYKIDFDIVMTRTRFFSNTLLGFIFAKLRFKKKKLIHVEHGSAFVKLESEFKNKLSYFYDKTIGKLIFKKADYVVAISKAVKNFILENFVNDKDIPIIYRGLEIEKIESIGEDKKIKEKFKNKIKLCFVGRLYKWKGVENIIKAYVDLPKDLKEKIILIVVGYGEDLERLKKLAGNYLNNGIYFTGKVDFEKAIAIVKASDIYIHSSYKGGGLSSSLLQAMCCGKAIVASPYEGADEVVIDGYNGILLKDNSPEEIKRGIIKLIENNNLRKIYGENAKNFIKENFNWKKSVKEYKKIFERLVN | not soluble
MKFKQIILAGAVLATSTFTSLTNAQAETGFRDVPSDHWSYNAIMGLKEKNIVAGYGNGMFGFGDNITRGQVARLIYAYLKPADEHNAPNPFTDVKGHMFEKEILSLSKAGIMNGFGDGKFGPDNVLTREQLAVVLTKAFNFKATSTTTFKDVDKNYWATNAISALQENKIAAGTGDNLFEPKNIVTREQYAQFLYNAMNTVEVKPELTPFGIPSSMITNDFYYNSNNWKNASPVLKKSVSNEAQNLITKINKKYNEDYKYESASVSSMGLPESVQLRTSNPNLGRVYDLGQGQFFVQGENEHDFYIMFIIDNATVELAKSWITLINSDLNLDKEINDVIAMPSQKARGRDYHTYLDKGKYQIELGTSPQTKGYDSLFIGIKRK | not soluble
MAHHHHHHMPRNRSSGDDGGGGGKRGGRYAAVVEKGENAWKREWSSFMSGVNLKRLRDGTSGVTLKASADIERQLVAREAAPSSSSVAGEHDNGNDVEVNADGIPLGAIASHASFSYLFSSPAERRAERDARERAEAERRQAHKRELMAKKDPLSVLSKHQRAMHNAEQRGLQLDGMTRKERRSFLHLTVTEAQRKAEEQSREFKLHDLMDEKLAWYQQGPHPIDLIAEKLVRRKAEKKGKQLGLKYNYLAPHPSWLAKRAQRRRESLLVGLGKRLIFLERVTGEDKDDATTVPSSEVMVTDPLHHLTVPLSEMGRLLGQHGSASLSAAAAAAADADALVTAAAGSSSGDDIEDVKGADEEGAQHLGGEVDRGHRGDVTAARKKAVSASSAASSAGGCSSASPGKRASGEAGDDGVGNDAAQMRLPDVVVLQDPSRIATSLVRTVARDRTTALAIQQINRTTNFLSSGLVKGPSLRPEDALPGNGLSPRGLGAAPAAAALTPSPKSSMVAASMQDSAANSTKGAATTSRGASAAGRGRRRVRVADGEEEGGERRRHRRGADVSAGESQTKTSKPTASPSPRPRGARPPPTHTHELRDITSRSGPSKSQGGQVSSSKTKRQRANSRYD | not soluble
AEVYNKDGNKLDLYGKVDGLHYFSDDKSVDGDQTYMRLGFKGETQVTDQLTGYGQWEYQIQGNAPESENNSWTRVAFAGLKFQDIGSFDYGRNYGVVYDVTSWTDVLPEFGGDTYGSDNFMQQRGNGFATYRNTDFFGLVDGLNFAVQYQGQNGSVSGENDPDFTGHGITNNGRKALRQNGDGVGGSITYDYEGFGVGAAVSSSKRTWDQNNTGLIGTGDRAETYTGGLKYDANNIYLAAQYTQTYNATRVGSLGWANKAQNFEAVAQYQFDFGLRPSVAYLQSKGKNLGVVAGRNYDDEDILKYVDVGATYYFNKNMSTYVDYKINLLDDNQFTRAAGINTDDIVALGLVYQF | soluble
MGSDKIHHHHHHMKRTTKSIQAEIAKGAFRPHTALSTMALAYYQQETTSFAKNMFPVCPVQLSSDNYYVFDKEDLLRDNWNRKPAYGSVDPAVISEHTENYACHVDQMMMGIDNIRQTDLNRRQGPHTKDPRQQRTKVIATQANIHQDAEFSKSFMRKGVWKNEATGTDSVSVTSGQFIKFSNGNSDPIAFFQNKMTEINEETGRTPNRLGLGVNVYNALKEHPAILERVKYGGSTPNPAKVNLNVLAQLFEIDRIVLDRTVQNKAGLGQNADMGYIGDPNSFLLAYATDTPSVEEPSAGYIFTWDMLENGILLPILNYPGAPGTHSELVEGLMAYDMKKTADDLAFFGCDAV | not soluble
MGSDKIHHHHHHMFRIQLRTMSSKTCKSDYPKEFVSFLNSSHSPYHTVHNIKKHLVSNGFKELSERDSWAGHVAQKGKYFVTRNGSSIIAFAVGGKWEPGNPIAITGAHTDSPALRIKPISKRVSEKYLQVGVETYGGAIWHSWFDKDLGVAGRVFVKDAKTGKSIARLVDLNRPLLKIPTLAIHLDRDVNQKFEFNRETQLLPIGGLQEDKTEAKTEKEINNGEFTSIKTIVQRHHAELLGLIAKELAIDTIEDIEDFELILYDHNASTLGGFNDEFVFSGRLDNLTSCFTSMHGLTLAADTEIDRESGIRLMACFDHEEIGSSSAQGADSNFLPNILERLSILKGDGSDQTKPLFHSAILETSAKSFFLSSDVAHAVHPNYANKYESQHKPLLGGGPVIKINANQRYMTNSPGLVLVKRLAEAAKVPLQLFVVANDSPCGSTIGPILASKTGIRTLDLGNPVLSMHSIRETGGSADLEFQIKLFKEFFERYTSIESEIVV | not soluble
MGFYQGPDNRKITGGLKGKHRDKRKYEIGNPPTFTTLSAEDIRIKDRTLGGNFKVRLKYTTTANVLDPATNTAKKVKILEILETPANKELARRGIIIRGAKIRTEAGLAVVTSRPGQDGVINAVLLKNESQRSLEHHHHHH | not soluble
MVDQGILRLRQKDASLEFGPPRRRTTVVNWYQERHGTRLTKPEWPLAFVCRNPGTCLQIELVTVMII | not soluble
AQSSTDVIDQLFTALSGWFHGSEEKLGEFRGCFFINTSAEFSDDSGEIATYCRHHKQQVRELIQRYLKSDNTSLLDAICIMKEGAITTAYMTKEYDDVTKKCVEILHKL | not soluble

Reference: the DeepSol protein solubility set
